Experimental data reported in PMC4558565.
“And” between values parts separate entries of the source, which are not always exact repeats. Equal entries are not always repeated. Each block holds one molecule with its values, some of them ahead of it.

Columns and labels:
[1] = biological target: bZIP1-VENUSN (m29) signal relative to bZIP11-CFPN (m30) signal; experiment: multi-color BiFC in N. tabacum leaves, confocal microscopy; conditions: co-transformed with mCherry-tagged AKIN10; 115-118 nuclei; value is the median of the box plot; parent: est. 2.4; read off a plot
[2] = biological target: bZIP63 in which S29 or all three serines were mutated to alanine; experiment: two-hybrid; protoplast two-hybrid (P2H) in Arabidopsis leaf protoplasts; GAL4-AD and GAL4-BD fusions, GAL-UAS4::GUS reporter normalised to 35S::NAN; without and with co-transformation of AKIN10; 16 hr

- other: VENUS/CFP (norm.) [1]: 1
Molecule: bZIP63 (split-CFP BiFC fusion) (from UniProt B9DGI8) S29A; S294A; S300A

- % of the signal with wt bZIP63 [2]: 30% and 40%
B1: bZIP11 (protoplast two-hybrid fusion) (natural protein)
chain: MESSSSGTTSSTIQTSSGSEESLMEQRKRKRMLSNRESARRSRMKKQKLLDDLTAQVNHLKKENTEIVTSVSITTQHYLTVEAENSVLRAQLDELNHRLQSLNDIIEFLDSSNNNNNNNMGMCSNPLVGLECDDFFVNQMNMSYIMNQPLMASSDALMY

- % of the signal with wt bZIP63 [2]: 30% and 40%
B2: bZIP63 (protoplast two-hybrid fusion) (natural protein)
chain: MEKVFSDEEISGNHHWSVNGMTSLNRSASEWAFNRFIQESSAAADDGESTTACGVSVSSPPNVPVDSEEYRAFLKSKLNLACAAVAMKRGTFIKPQDTSGRSDNGGANESEQASLASSKATPMMSSAITSGSELSGDEEEADGETNMNPTNVKRVKRMLSNRESARRSRRRKQAHLSELETQVSQLRVENSKLMKGLTDVTQTFNDASVENRVLKANIETLRAKVKMAEETVKRLTGFNPMFHNMPQIVSTVSLPSETSNSPDTTSSQVTTPEIISSGNKGKALIGCKMNRTASMRRVESLEHLQKRIRSVGDQ
